# From the supplement of paper PMC9112550, “Optimization of the antimicrobial peptide Bac7 by deep mutational scanning” (BMC Biology, 2022)
# System: Escherichia coli TOP10
# Assay: shrunken log2 fold change of peptide-encoding DNA abundance (4.5 h post-induction vs induction); higher = less antimicrobial activity (less host growth inhibition)
# Conditions: time post-induction: 4.5 h; library: site-saturation at positions 5, 18, 19, 20
# 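Further: peptides expressed intracellularly from a pBAD plasmid library in pooled LB shake-flask culture, induced with 0.3% L-arabinose, DNA abundance read by NGS, three biological replicates, DESeq2 with apeglm shrinkage.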
row,Sequence,shrunken log2 fold change
1,RRIRPRPPRLPRPRPRPGRKPRP,0.199
2,RRIRDRPPRLPRPRPRPNPLPRP,1.05
3,RRIRSRPPRLPRPRPRPHVFPRP,2.95
4,RRIRKRPPRLPRPRPRPQTMPRP,0.0588
5,RRIRQRPPRLPRPRPRPVKRPRP,0.103
6,RRIRIRPPRLPRPRPRPKEMPRP,-0.297
7,RRIRRRPPRLPRPRPRPMKGPRP,0.144
8,RRIRSRPPRLPRPRPRPHMVPRP,-0.112
9,RRIRSRPPRLPRPRPRPQTTPRP,-0.237
10,RRIRKRPPRLPRPRPRPLMFPRP,0.0317
11,RRIRNRPPRLPRPRPRPAFPPRP,-0.138
12,RRIRDRPPRLPRPRPRPKHNPRP,-0.0986
13,RRIRFRPPRLPRPRPRPQTPPRP,0.626
14,RRIRCRPPRLPRPRPRPWHVPRP,-0.259
15,RRIRCRPPRLPRPRPRPTIQPRP,-0.508
16,RRIRCRPPRLPRPRPRPVIRPRP,-0.733
17,RRIRVRPPRLPRPRPRPPPSPRP,0.897
18,RRIRMRPPRLPRPRPRPKMTPRP,2.7
19,RRIRWRPPRLPRPRPRPIQEPRP,-0.0126
20,RRIRGRPPRLPRPRPRPEYWPRP,1.03
21,RRIRLRPPRLPRPRPRPSECPRP,0.215
22,RRIRKRPPRLPRPRPRPRVEPRP,0.144
23,RRIRIRPPRLPRPRPRPHAEPRP,-0.217
24,RRIRIRPPRLPRPRPRPYIQPRP,-1.75
25,RRIRGRPPRLPRPRPRPTPRPRP,1.16

row,Sequence,shrunken log2 fold change
1,RRIRFRPPRLPRPRPRPMTAPRP,-0.00148
2,RRIRLRPPRLPRPRPRPCTYPRP,-0.683
3,RRIRGRPPRLPRPRPRPNMCPRP,-0.0942
4,RRIRDRPPRLPRPRPRPNQQPRP,-0.12
5,RRIRVRPPRLPRPRPRPSDGPRP,0.000198
6,RRIRCRPPRLPRPRPRPADGPRP,-0.129
7,RRIRARPPRLPRPRPRPMGQPRP,0.229
8,RRIRGRPPRLPRPRPRPAKAPRP,0.233
9,RRIRPRPPRLPRPRPRPHGQPRP,0.186
10,RRIRIRPPRLPRPRPRPMEYPRP,-0.395
11,RRIRKRPPRLPRPRPRPDLHPRP,-0.0392
12,RRIRCRPPRLPRPRPRPPRCPRP,1.9
13,RRIRMRPPRLPRPRPRPGKAPRP,0.153
14,RRIRDRPPRLPRPRPRPFSCPRP,0.171
15,RRIRYRPPRLPRPRPRPQELPRP,-0.00884
16,RRIRFRPPRLPRPRPRPWHHPRP,-0.325
17,RRIRERPPRLPRPRPRPMLGPRP,0.00848
18,RRIRIRPPRLPRPRPRPCMHPRP,-0.171
19,RRIRGRPPRLPRPRPRPICLPRP,0.277
20,RRIRMRPPRLPRPRPRPCMKPRP,-0.125
21,RRIRIRPPRLPRPRPRPICNPRP,-0.607
22,RRIRMRPPRLPRPRPRPEIEPRP,0.0729
23,RRIRLRPPRLPRPRPRPRNVPRP,-0.116
24,RRIRCRPPRLPRPRPRPQWYPRP,-0.321
25,RRIRWRPPRLPRPRPRPRNPPRP,0.113

row,Sequence,shrunken log2 fold change
1,RRIRFRPPRLPRPRPRPQTYPRP,-0.69
2,RRIRMRPPRLPRPRPRPADMPRP,0.728
3,RRIRKRPPRLPRPRPRPSFCPRP,-0.0321
4,RRIRARPPRLPRPRPRPPHDPRP,1.02
5,RRIRWRPPRLPRPRPRPCLSPRP,-0.15
6,RRIRSRPPRLPRPRPRPIDHPRP,-0.273
7,RRIRRRPPRLPRPRPRPKSTPRP,0.18
8,RRIRMRPPRLPRPRPRPPDEPRP,2.96
9,RRIRFRPPRLPRPRPRPKQFPRP,0.058
10,RRIRARPPRLPRPRPRPHYPPRP,-1.36
11,RRIRYRPPRLPRPRPRPHSAPRP,-0.121
12,RRIRPRPPRLPRPRPRPGYSPRP,-0.0781
13,RRIRMRPPRLPRPRPRPNKSPRP,0.0117
14,RRIRIRPPRLPRPRPRPRSWPRP,0.394
15,RRIRCRPPRLPRPRPRPIQDPRP,-0.49
16,RRIRKRPPRLPRPRPRPNRFPRP,-0.0658
17,RRIRMRPPRLPRPRPRPIHTPRP,-0.0437
18,RRIRFRPPRLPRPRPRPAAQPRP,0.122
19,RRIRPRPPRLPRPRPRPVIQPRP,-0.203
20,RRIRLRPPRLPRPRPRPICMPRP,-0.456
21,RRIRARPPRLPRPRPRPGGMPRP,0.337
22,RRIRNRPPRLPRPRPRPSPSPRP,-0.0323
23,RRIRHRPPRLPRPRPRPVRAPRP,0.571
24,RRIRWRPPRLPRPRPRPMCKPRP,-0.0527
25,RRIRPRPPRLPRPRPRPCKFPRP,-0.0234

row,Sequence,shrunken log2 fold change
1,RRIRNRPPRLPRPRPRPHTAPRP,-0.158
2,RRIRGRPPRLPRPRPRPRTQPRP,0.826
3,RRIRGRPPRLPRPRPRPIVDPRP,0.0357
4,RRIRHRPPRLPRPRPRPIDIPRP,-0.326
5,RRIRSRPPRLPRPRPRPNINPRP,-0.612
6,RRIRIRPPRLPRPRPRPFLAPRP,-0.493
7,RRIRCRPPRLPRPRPRPRAGPRP,0.472
8,RRIRARPPRLPRPRPRPRHQPRP,0.178
9,RRIRSRPPRLPRPRPRPGCTPRP,0.22
10,RRIRQRPPRLPRPRPRPRCRPRP,0.0135
11,RRIRRRPPRLPRPRPRPFSHPRP,-0.0121
12,RRIRYRPPRLPRPRPRPLFWPRP,-0.214
13,RRIRERPPRLPRPRPRPKKMPRP,-0.478
14,RRIRHRPPRLPRPRPRPQLMPRP,-0.351
15,RRIRPRPPRLPRPRPRPFAPPRP,0.14
16,RRIRDRPPRLPRPRPRPDAEPRP,1.23
17,RRIRARPPRLPRPRPRPITQPRP,-0.0161
18,RRIRSRPPRLPRPRPRPQNNPRP,-0.573
19,RRIRSRPPRLPRPRPRPWHQPRP,-0.25
20,RRIRGRPPRLPRPRPRPKNDPRP,0.698
21,RRIRMRPPRLPRPRPRPIHRPRP,-0.154
22,RRIRIRPPRLPRPRPRPESSPRP,-0.0745
23,RRIRLRPPRLPRPRPRPACFPRP,0.259
24,RRIRARPPRLPRPRPRPESVPRP,0.886
25,RRIRNRPPRLPRPRPRPVFQPRP,-0.623

row,Sequence,shrunken log2 fold change
1,RRIRLRPPRLPRPRPRPMDMPRP,-0.384
2,RRIRQRPPRLPRPRPRPGTKPRP,0.0136
3,RRIRLRPPRLPRPRPRPEGNPRP,-0.149
4,RRIRERPPRLPRPRPRPISMPRP,2.71
5,RRIRMRPPRLPRPRPRPQHTPRP,-0.0951
6,RRIRRRPPRLPRPRPRPYAEPRP,0.132
7,RRIRDRPPRLPRPRPRPYLLPRP,-0.179
8,RRIRFRPPRLPRPRPRPVKTPRP,0.0856
9,RRIRWRPPRLPRPRPRPENLPRP,0.0583
10,RRIRWRPPRLPRPRPRPISMPRP,-0.209
11,RRIRYRPPRLPRPRPRPVYNPRP,-0.394
12,RRIRARPPRLPRPRPRPEWPPRP,0.591
13,RRIRDRPPRLPRPRPRPCWHPRP,2.46
14,RRIRLRPPRLPRPRPRPHVMPRP,-0.266
15,RRIRIRPPRLPRPRPRPECRPRP,0.0513
16,RRIRLRPPRLPRPRPRPHKCPRP,-0.0456
17,RRIRWRPPRLPRPRPRPMYDPRP,-0.158
18,RRIRRRPPRLPRPRPRPYHPPRP,-0.34
19,RRIRKRPPRLPRPRPRPEINPRP,0.0365
20,RRIRRRPPRLPRPRPRPMNHPRP,-0.281
21,RRIRPRPPRLPRPRPRPCHFPRP,-0.265
22,RRIRMRPPRLPRPRPRPHFAPRP,0.194
23,RRIRWRPPRLPRPRPRPYQPPRP,-0.0963
24,RRIRHRPPRLPRPRPRPNRNPRP,-1.01
25,RRIRCRPPRLPRPRPRPDRYPRP,0.00956
